Each block holds one binder with its values, some of them ahead of it.
How the values were obtained:
[1] = target: T1, OR6C1 peptide loaded T2 cells (human, UniProt P61769 21-119); test: flow cytometry, peptide-loaded T2 cells
T1 construct: whole, on cells; also called OR6C1/T2

[2] = target: T2, PTP4A1 peptide loaded T2 cells (human, UniProt P61769 21-119); test: flow cytometry, peptide-loaded T2 cells
T2 construct: whole, on cells; also called PTP4A1-pulsed T2 cells

[3] = target: T3, RP1 peptide loaded T2 cells (human, UniProt P61769 21-119); test: flow cytometry, peptide-loaded T2 cells
T3 construct: whole, on cells; also called RP1/T2

[4] = target: T4, RCL1 peptide loaded T2 cells (human); test: flow cytometry, peptide-loaded T2 cells
T4 construct: whole, on cells; also called RCL1/T2

[5] = target: T5, ZNF566 peptide loaded T2 cells (human, UniProt P61769 21-119); test: flow cytometry, peptide-loaded T2 cells
T5 construct: whole, on cells; also called ZNF566/T2

[6] = target: T6, ARNTL peptide loaded T2 cells (human, UniProt P61769 21-119); test: flow cytometry, peptide-loaded T2 cells
T6 construct: whole, on cells; also called ARNTL/T2

[7] = target: T7, ATG9A peptide loaded T2 cells (human, UniProt P61769 21-119); test: flow cytometry, peptide-loaded T2 cells
T7 construct: whole, on cells; also called ATG9A/T2

[8] = target: T8, BRCA2 peptide loaded T2 cells (human); test: flow cytometry, peptide-loaded T2 cells
T8 construct: whole, on cells; also called BRCA2/T2

[9] = target: T9, CDC14A peptide loaded T2 cells (human, UniProt P61769 21-119); test: flow cytometry, peptide-loaded T2 cells
T9 construct: whole, on cells; also called CDC14A/T2

[10] = target: T10, NR2E1 peptide loaded T2 cells (human, UniProt P61769 21-119); test: flow cytometry, peptide-loaded T2 cells
T10 construct: whole, on cells; also called NR2E1/T2

[11] = target: T11, OR1I1 peptide loaded T2 cells (human, UniProt P61769 21-119); test: flow cytometry, peptide-loaded T2 cells
T11 construct: whole, on cells; also called OR1I1/T2

[12] = target: T12, OR51B6 peptide loaded T2 cells (human, UniProt P61769 21-119); test: flow cytometry, peptide-loaded T2 cells
T12 construct: whole, on cells; also called OR51B6/T2

[13] = target: T13, AFP158/HLA-A*02:01 complex (human); test: SPR, antibody captured via mIgG2a-Fc, complex as analyte
T13 construct: biotinylated on the BSP by BirA for ELISA and panning; also called biotinylated AFP158/HLA-A*02:01 complex; Bio-AFP158
Experimental: (§1) The binding affinity between selected antibodies and AFP158/HLA-A*02:01 complex was determined by surface plasmon resonance (SPR) on a BIAcore T200 instrument (GE Healthcare). The experiment was carried out as follows. The purified sdAb/scFv-mIgG2aFc protein were captured through mIgG2a-Fc onto the sensorchip. […] On-rate (kₐ) and off-rate (kd) were calculated based on association and dissociation curve, and were used to estimate the equilibrium dissociation constant (KD).

[14] = target: T13, AFP158/HLA-A*02:01 complex; test: SPR, scFv-mIgG2aFc from supernatant captured, complex as analyte
Experimental: as §1
Humanized heavy chains and light chains were combined, and used to produce a series of humanized antibodies. These antibodies were synthesized as scFv-mIgG2aFc and transiently produced using HEK293 cells. The antibodies in the supernatant were subjected to SPR affinity assessment.

[15] = target: T2, PTP4A1 peptide loaded T2 cells; test: flow cytometry, 30 or 50 nM i647-labelled antibody
Experimental: At the concentration of 30 or 50 nM, binding of 7 antibodies to T2 cells loaded with AFP158, 50 endogenous self-peptides and 12 homologous peptides were carried out using flow cytometry.

binding result [1]: no binding (tested: 30 or 50 nM)
binding result [2]: no binding (tested: 30 or 50 nM)
binding result [3]: no binding (tested: 30 or 50 nM)
binding result [4]: no binding (tested: 30 or 50 nM)
binding result [5]: no binding (tested: 30 or 50 nM)
binding result [6]: no binding (tested: 30 or 50 nM)
binding result [7]: no binding (tested: 30 or 50 nM)
binding result [8]: no binding (tested: 30 or 50 nM)
binding result [9]: no binding (tested: 30 or 50 nM)
binding result [10]: no binding (tested: 30 or 50 nM)
binding result [11]: no binding (tested: 30 or 50 nM)
binding result [12]: no binding (tested: 30 or 50 nM)
Kd [13]: 250 nM
koff [13]: 0.06 s⁻¹
kon [13]: 240000 M⁻¹ s⁻¹
Kd [14]: 450 nM
koff [14]: 0.19 s⁻¹
kon [14]: 430000 M⁻¹ s⁻¹
B1: AS170036 scFv-mIgG2aFc (Fc fusion, not shown: a dimerising Fc or GST)
chain: QLVLTQPSSVSGTPGQTVTISCAGTSSDVGSENYVSWYRQLPGTAPKLLIYQVNKRASGIADRFSGSKSGNTASMTISGLQSADEADYYCASYRSSDHNIVFGGGTHLTVLGGGGSGGGGSGGGGSAVQLVESGGGLVQPGGSLRLSCTASGFTFSSYAMSWVRQAPGKGLEWVSTINSGTGSPYYADSVKGRFTISRDNAKNTLYLQLNSLKTEDTAMYYCAKNFFDGSWFLGPPAMDYWGKGTLVTISS
notes: Camel scFv

binding result [15]: binds
B2: ET1402L1 scFv fused to a C-terminal mouse IgG2a Fc region (Fc fusion, not shown: a dimerising Fc or GST)
chain: QSVLTQPASVSGSPGQSITISCTGTSSDVGGYNYVSWYQQHPGKAPKLMIYDVNNRPSEVSNRFSGSKSGNTASLTISGLQAEDEADYYCSSYTTGSRAVFGGGTKLTVLGGGGSGGGGSGGGGSEVQLVQSGAEVKKPGESLTISCKASGYSFPNYWITWVRQMSGGGLEWMGRIDPGDSYTTYNPSFQGHVTISIDKSTNTAYLHWNSLKASDTAMYYCARYYVSLVDIWGQGTLVTVSS
notes: also called positive control antibody
